Results published in patent US20070065878A1.

Tests used:
[1] = target: T1, G05 (TEV substrate clone, 5X library)
T1 chain: LRELW

[2] = target: T2, F11 (TEV substrate clone, 5X library)
T2 chain: GEPLW

[3] = target: T3, G08 (TEV substrate clone, 5X library)
T3 chain: MEWLW

[4] = target: T4, H03 (TEV substrate clone, 5X library)
T4 chain: ARQIR

[5] = target: T5, D1 (TEVopt library clone)
T5 chain: WLYLQG

[6] = target: T6, D10 (TEV substrate clone, 5X library)
T6 chain: LYFQG

[7] = target: T7, F03 (TEV substrate clone, 5X library)
T7 chain: LESLV

[8] = target: T8, E11 (TEV substrate clone, 5X library)
T8 chain: WESLY

[9] = target: T9, D05 (TEV substrate clone, 5X library)
T9 chain: GEAGV

[10] = target: T10, B07 (TEV substrate clone, 5X library)
T10 chain: MEEVY

[11] = target: T11, G06 (TEV substrate clone, 5X library)
T11 chain: SEDLW

[12] = target: T12, C10 (TEV substrate clone, 5X library)
T12 chain: PEVIY

[13] = target: T13, G03 (TEV substrate clone, 5X library)
T13 chain: GDMGY

[14] = target: T14, F05 (TEV substrate clone, 5X library)
T14 chain: DRELY

[15] = target: T15, H06 (TEV substrate clone, 5X library)
T15 chain: EEELW

[16] = target: T16, A06 (TEV substrate clone, 5X library)
T16 chain: FEDGL

[17] = target: T17, F07 (TEV substrate clone, 5X library)
T17 chain: EENLG

[18] = target: T18, C04 (TEV substrate clone, 5X library)
T18 chain: RRMAE

[19] = target: T19, D09 (TEV substrate clone, 5X library)
T19 chain: MEMLR

[20] = target: T20, E09 (TEV substrate clone, 5X library)
T20 chain: SEPLR

[21] = target: T21, D08 (TEV substrate clone, 5X library)
T21 chain: LEWLK

[22] = target: T22, G02 (TEV substrate clone, 5X library)
T22 chain: GEAGF

[23] = target: T23, D02 (TEV substrate clone, 5X library)
T23 chain: DSELY

[24] = target: T24, F04 (TEV substrate clone, 5X library)
T24 chain: DRELY

[25] = target: T25, H04 (TEV substrate clone, 5X library)
T25 chain: MEDLM

[26] = target: T26, D01 (TEV substrate clone, 5X library; as in Table 5A)
T26 chain: DVQLY

[27] = target: T27, C4 (TEVopt library clone)
T27 chain: ELYWQG

[28] = target: T28, E05 (TEV substrate clone, 5X library)
T28 chain: RDDGY

[29] = target: T29, C5 (TEVopt library clone)
T29 chain: ELYAQG

[30] = target: T30, F02 (TEV substrate clone, 5X library)
T30 chain: EEYLW

[31] = target: T31, E6 (TEVopt library clone)
T31 chain: VLYTQG

[32] = target: T32, F09 (TEV substrate clone, 5X library)
T32 chain: GEDLL

[33] = target: T33, H09 (TEV substrate clone, 5X library)
T33 chain: GEALF

[34] = target: T34, E01 (TEV substrate clone, 5X library)
T34 chain: EEYLW

[35] = target: T35, H07 (TEV substrate clone, 5X library)
T35 chain: EEAVL

[36] = target: T36, B6 (TEVopt library clone)
T36 chain: EVYVQG

[37] = target: T37, A2 (TEVopt library clone)
T37 chain: DVYVQG

[38] = target: T38, A1 (TEVopt library clone)
T38 chain: FLYLQG

[39] = target: T39, C09 (TEV substrate clone, 5X library)
T39 chain: RELVY

[40] = target: D03 (TEV substrate clone, 5X library)
[41] = target: T40, E07 (TEV substrate clone, 5X library)
T40 chain: ETILY

[42] = target: T41, B11 (TEV substrate clone, 5X library)
T41 chain: GETVY

[43] = target: T42, D01 (TEV substrate clone, 5X library; as in Table 6)
T42 chain: GEVLW

[44] = target: T43, A4 (TEVopt library clone)
T43 chain: VLYLQS

[45] = target: T44, C05 (TEV substrate clone, 5X library)
T44 chain: REVGY

[46] = target: T45, C6 (TEVopt library clone)
T45 chain: QLYFQS

[47] = target: T46, D07 (TEV substrate clone, 5X library)
T46 chain: REVLY

[48] = target: E03 (TEV substrate clone, 5X library)
[49] = target: T47, D4 (TEVopt library clone)
T47 chain: LLYIQG

[50] = target: T48, A05 (TEV substrate clone, 5X library)
T48 chain: FEDLL

[51] = target: T49, B09 (TEV substrate clone, 5X library)
T49 chain: LEQLI

[52] = target: T50, D11 (TEV substrate clone, 5X library)
T50 chain: GEHVY

[53] = target: T51, H08 (TEV substrate clone, 5X library)
T51 chain: WEPLW

[54] = target: T52, D04 (TEV substrate clone, 5X library)
T52 chain: GEALF

[55] = target: T53, C11 (TEV substrate clone, 5X library)
T53 chain: DGALY

[56] = target: Control (TEV substrate ENLYFQS)
[57] = target: T54, B02 (TEV substrate clone, 5X library)
T54 chain: EEELY

[58] = target: T55, D5 (TEVopt library clone)
T55 chain: SLYWQG

[59] = target: T56, H11 (TEV substrate clone, 5X library)
T56 chain: AEWGR

[60] = target: T57, C3 (TEVopt library clone)
T57 chain: DLYWQG

[61] = target: T58, C07 (TEV substrate clone, 5X library)
T58 chain: VEPIY

[62] = target: T59, E4 (TEVopt library clone)
T59 chain: SLYVQG

[63] = target: T60, A3 (TEVopt library clone)
T60 chain: ALYIQG
Wherever % Conversion is given: test concentration or dose not given here.
Wherever Conversion (group heading of the table) is given: test concentration or dose not given here.
Wherever Fl (fluorescence without TEV) is given: unit not given here.
Wherever Fl after TEV is given: unit not given here.

B1: tobacco etch virus protease (protein)
chain: GESLFKGPRDYNPISSTICHLTNESDGHTTSLYGIGFGPFIITNKHLFRRNNGTLLVQSLHGVFKVKNTTTLQQHLIDGRDMIIIRMPKDFPPFPQKLKFREPQREERICLVTTNFQTKSMSSMVSDTSCTFPSSDGIFWKHWIQTKDGQCGSPLVSTRDGFIVGIHSASNFTNTNNYFTSVPKNFMELLTNQEAQQWVSGWRLNADSVLWGGHKVFMSKPEEPFQPVKEATQLMNELVYSQ
- Conversion (group heading of the table) [1]: 60%-90% Conversion
- Conversion (group heading of the table) [2]: 50%-60% Conversion
- Conversion (group heading of the table) [3]: 60%-90% Conversion
- Conversion (group heading of the table) [4]: 30%-50% conversion
- % Conversion (fraction (head says % Conversion)) [5]: 0.68
- Conversion (group heading of the table) [6]: 60%-90% Conversion
- Conversion (group heading of the table) [7]: 60%-90% Conversion
- % Conversion (fraction (head says % Conversion)) [8]: 0.77
- Conversion (group heading of the table) [8]: 60%-90% Conversion
- Fl (fluorescence without TEV) [8]: 5050
- Fl after TEV [8]: 1360
- Conversion (group heading of the table) [9]: 30%-50% conversion
- Conversion (group heading of the table) [10]: 50%-60% Conversion
- Conversion (group heading of the table) [11]: 60%-90% Conversion
- % Conversion (fraction (head says % Conversion)) [12]: 0.81
- Conversion (group heading of the table) [12]: 60%-90% Conversion
- Fl (fluorescence without TEV) [12]: 6110
- Fl after TEV [12]: 1380
- Conversion (group heading of the table) [13]: 30%-50% conversion
- Conversion (group heading of the table) [14]: 50%-60% Conversion
- Conversion (group heading of the table) [15]: 60%-90% Conversion
- Conversion (group heading of the table) [16]: 30%-50% conversion
- Conversion (group heading of the table) [17]: 50%-60% Conversion
- Conversion (group heading of the table) [18]: 60%-90% Conversion
- Conversion (group heading of the table) [19]: 60%-90% Conversion
- Conversion (group heading of the table) [20]: 60%-90% Conversion
- Conversion (group heading of the table) [21]: 60%-90% Conversion
- Conversion (group heading of the table) [22]: 30%-50% conversion
- Conversion (group heading of the table) [23]: 60%-90% Conversion
- % Conversion (fraction (head says % Conversion)) [24]: 0.79
- Conversion (group heading of the table) [24]: 60%-90% Conversion
- Fl (fluorescence without TEV) [24]: 5910
- Fl after TEV [24]: 1420
- Conversion (group heading of the table) [25]: 50%-60% Conversion
- Conversion (group heading of the table) [26]: 60%-90% Conversion
- % Conversion (fraction (head says % Conversion)) [27]: 0.689
- Conversion (group heading of the table) [28]: 30%-50% conversion
- % Conversion (fraction (head says % Conversion)) [29]: 0.588
- Conversion (group heading of the table) [30]: 30%-50% conversion
- % Conversion (fraction (head says % Conversion)) [31]: 0.549
- % Conversion (fraction (head says % Conversion)) [32]: 0.71
- Conversion (group heading of the table) [32]: 60%-90% Conversion
- Fl (fluorescence without TEV) [32]: 4810
- Fl after TEV [32]: 1550
- Conversion (group heading of the table) [33]: 60%-90% Conversion
- Conversion (group heading of the table) [34]: 50%-60% Conversion
- % Conversion (fraction (head says % Conversion)) [35]: 0.71
- Conversion (group heading of the table) [35]: 60%-90% Conversion
- Fl (fluorescence without TEV) [35]: 2990
- Fl after TEV [35]: 1040
- % Conversion (fraction (head says % Conversion)) [36]: 0.61
- % Conversion (fraction (head says % Conversion)) [37]: 0.526
- % Conversion (fraction (head says % Conversion)) [38]: 0.918
- Conversion (group heading of the table) [39]: 30%-50% conversion
- Conversion (group heading of the table) [40]: 60%-90% Conversion
- Conversion (group heading of the table) [41]: 50%-60% Conversion
- Conversion (group heading of the table) [42]: 30%-50% conversion
- % Conversion (fraction (head says % Conversion)) [43]: 0.87
- Fl (fluorescence without TEV) [43]: 3840
- Fl after TEV [43]: 725
- % Conversion (fraction (head says % Conversion)) [44]: 0.854
- Conversion (group heading of the table) [45]: 30%-50% conversion
- % Conversion (fraction (head says % Conversion)) [46]: 0.618
- Conversion (group heading of the table) [47]: 60%-90% Conversion
- Conversion (group heading of the table) [48]: 60%-90% Conversion
- % Conversion (fraction (head says % Conversion)) [49]: 0.517
- Conversion (group heading of the table) [50]: 50%-60% Conversion
- % Conversion (fraction (head says % Conversion)) [51]: 0.76
- Conversion (group heading of the table) [51]: 60%-90% Conversion
- Fl (fluorescence without TEV) [51]: 3250
- Fl after TEV [51]: 980
- Conversion (group heading of the table) [52]: 60%-90% Conversion
- % Conversion (fraction (head says % Conversion)) [53]: 0.73
- Conversion (group heading of the table) [53]: 60%-90% Conversion
- Fl (fluorescence without TEV) [53]: 3970
- Fl after TEV [53]: 1250
- Conversion (group heading of the table) [54]: 50%-60% Conversion
- Conversion (group heading of the table) [55]: 50%-60% Conversion
- % Conversion (fraction (head says % Conversion)) [56]: 0.664
- % Conversion (fraction (head says % Conversion)) [57]: 0.72
- Conversion (group heading of the table) [57]: 60%-90% Conversion
- Fl (fluorescence without TEV) [57]: 3270
- Fl after TEV [57]: 1080
- % Conversion (fraction (head says % Conversion)) [58]: 0.717
- Conversion (group heading of the table) [59]: 30%-50% conversion
- % Conversion (fraction (head says % Conversion)) [60]: 0.734
- Conversion (group heading of the table) [61]: 30%-50% conversion
- % Conversion (fraction (head says % Conversion)) [62]: 0.863
- % Conversion (fraction (head says % Conversion)) [63]: 0.922
